Sequences and labels used below:
B1: APBB1IP (parent)
chain: SQVSMWDQRWQDHQPLLPITDVP
B2: TRIM39 (parent)
chain: CKACITRWWEDLERDFPCPVCRKT
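Note: lentivirally expressed fusions sorted by FACS into six bins by GFP to DsRed ratio, PSI derived from sequencing read proportions per bin multiplied by bin number.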

Variants of B1 are the subject of the first data set. Briefly: protein stability index of a GFP-peptide fusion (GPS, HEK-293T) (PSI 1-6); higher = more stable. As to conditions: c terminus: native.
Regarding SQVLMWDQRWQDHQPLLPITDVP, the protein stability index was determined as 2.02.
Still for that read-out and setting: for SQVCMWDQRWQDHQPLLPITDVP the value was 1.95.
Same read-out and setting: for SQVSMWDQRWQDHQPSLPITDVP the value was 2.98.
Turning to SQVSMWDQRWQDHQPILPITDVP, the protein stability index was 2.55.
Same read-out and setting: for SQVSMWDQRWQDHQPLNPITDVP the value was 3.1.
The same measure, in the same setting: for SQVSMWDQRWMDHQPLLPITDVP the value was 2.06; for SQVSMWDQRWQDHQPLLPKTDVP, 4.04; for PQVSMWDQRWQDHQPLLPITDVP, 2.94.
The same measure, in the same setting: then SMVSMWDQRWQDHQPLLPITDVP, with 3.18.
Turning to SKVSMWDQRWQDHQPLLPITDVP, the protein stability index was 2.57.
Still for that read-out and setting: for SNVSMWDQRWQDHQPLLPITDVP the value was 2.6; for SQVSMWDQRNQDHQPLLPITDVP, 3.39; for SQVSMWDQRPQDHQPLLPITDVP, 3.68.
Same read-out and setting: for SQVSMWDQRWQDHQHLLPITDVP the value was 2.07; for SQVSMWDQRWQDHQYLLPITDVP, 2.27.
Same read-out and setting: then SQVSFWDQRWQDHQPLLPITDVP, with 1.89.
Take SQVSGWDQRWQDHQPLLPITDVP: the protein stability index came to 2.37.
The same measure, in the same setting: for SQVSKWDQRWQDHQPLLPITDVP the value was 2.64; for SQHSMWDQRWQDHQPLLPITDVP, 3.28.
As for SQRSMWDQRWQDHQPLLPITDVP, the protein stability index is 2.43.

The variants in a further data set derive from B2. Described as above. As to conditions: c terminus: a fixed tail appended.
As to CKACITRWWEDLERDFPCPVMRKT, the protein stability index stood at 1.56.
Take CKACITRWWEDLERDFPCPVPRKT: the protein stability index worked out at 1.11.
Regarding CKACITRWWEDLERDFPCPVIRKT, the protein stability index worked out at 1.38.
Still for that read-out and setting: then CKACITRWWEDLERDFPCPVGRKT, with 1.4; and CKACITRWWEDLERDFPCPVYRKT, with 3.73; and CKACITRWWEDLERDFPCPVDRKT, with 2.57.
Take CKACITRWWEDLERDFPCPVARKT: the protein stability index was 2.18.
The same measure, in the same setting: then CKACITRWWEDLERDFPCPVHRKT, with 2.63; and CKACITRWWEDLERDFPCPVSRKT, with 1.68; and CKACITRWWEDLERDFPCPVLRKT, with 1.62.
Same read-out and setting: then CKACITRWWEDLERDFPCPVWRKT, with 2.18.
Still for that read-out and setting: then CKACITRWWEDLERDFPCPVERKT, with 1.32; and CKACITRWWEDLERDFPCPVFRKT, with 1.43; and CKACITRWWEDLERDFPCPVVRKT, with 1.52.
In the case of CKACITRWWEDLERDFPCPVRRKT, the protein stability index amounted to 1.94.
In the case of CKACITRWWEDLERDFPCPVQRKT, the protein stability index worked out at 2.48.
On the same count and under the same terms, for CKACITRWWEDLERDFPCPVKRKT the value was 2.19; for CKACITRWWEDLERDFPCPVTRKT, 1.56; for CKACITRWWEDLERDFPCPVNRKT, 2.39.
On the same count and under the same terms, for CKACITRWWEDLERDCPCPVCRKT the value was 2.32.
As for CKACITRWWEDLERDVPCPVCRKT, the protein stability index amounted to 4.04.
Same read-out and setting: for CKACITRWWEDLERDLPCPVCRKT the value was 2.96; for CKACITRWWEDLERDHPCPVCRKT, 4.1.
Consider CKACITRWWEDLERDYPCPVCRKT, for which the protein stability index was 3.7.
On the same count and under the same terms, then CKACITRWWEDLERDDPCPVCRKT, with 4.42; and CKACITRWWEDLERDPPCPVCRKT, with 3.76.
For the variant CKACITRWWEDLERDQPCPVCRKT, the protein stability index turned out to be 4.59.
The same measure, in the same setting: for CKACITRWWEDLERDGPCPVCRKT the value was 4.05.
The same measure, in the same setting: then CKACITRWWEDLERDRPCPVCRKT, with 4.2; and CKACITRWWEDLERDEPCPVCRKT, with 4.66.
As to CKACITRWWEDLERDKPCPVCRKT, the protein stability index was 4.48.
The same measure, in the same setting: then CKACITRWWEDLERDSPCPVCRKT, with 4.27; and CKACITRWWEDLERDIPCPVCRKT, with 3.78; and CKACITRWWEDLERDWPCPVCRKT, with 3.6.
Still for that read-out and setting: then CKACITRWWEDLERDTPCPVCRKT, with 4.37; and CKACITRWWEDLERDNPCPVCRKT, with 3.54.
The same measure, in the same setting: for CKACITRWWEDLERDMPCPVCRKT the value was 3.99; for CKACITRWWEDLERDFPCPVCMKT, 3.72.
As to CKACITRWWEDLERDFPCPVCPKT, the protein stability index was determined as 3.15.
Regarding CKACITRWWEDLERDFPCPVCTKT, the protein stability index is 3.72.
The same measure, in the same setting: then CKACITRWWEDLERDFPCPVCEKT, with 4.37; and CKACITRWWEDLERDFPCPVCNKT, with 4.22.
For CKACITRWWEDLERDFPCPVCAKT, the protein stability index came out at 4.36.
On the same count and under the same terms, for CKACITRWWEDLERDFPCPVCIKT the value was 3.62.
On the same count and under the same terms, for CKACITRWWEDLERDFPCPVCHKT the value was 4.32.
Still for that read-out and setting: for CKACITRWWEDLERDFPCPVCKKT the value was 3.47; for CKACITRWWEDLERDFPCPVCQKT, 3.96; for CKACITRWWEDLERDFPCPVCLKT, 3.81.
Take CKACITRWWEDLERDFPCPVCDKT: the protein stability index stood at 3.75.
Same read-out and setting: for CKACITRWWEDLERDFPCPVCFKT the value was 3.4.
The same measure, in the same setting: then CKACITRWWEDLERDFPCPVCYKT, with 3.58; and CKACITRWWEDLERDFPCPVCGKT, with 4.6; and CKACITRWWEDLERDFPCPVCWKT, with 2.53.
In the case of CKACITRWWEDLERDFPCPVCSKT, the protein stability index stood at 3.56.
The same measure, in the same setting: for CKACITRWWEDLERDFPCPVCCKT the value was 3.74.
Same read-out and setting: then CKACITRWWEDLERDFPCPVCVKT, with 3.04; and CKACITRWWEDLERDFPCPVCRQT, with 4.58.
As to CKACITRWWEDLERDFPCPVCRTT, the protein stability index came out at 3.31.
In the case of CKACITRWWEDLERDFPCPVCRDT, the protein stability index is 4.34.
Still for that read-out and setting: for CKACITRWWEDLERDFPCPVCRGT the value was 3.38; for CKACITRWWEDLERDFPCPVCRNT, 3.95; for CKACITRWWEDLERDFPCPVCRMT, 3.37.
Still for that read-out and setting: for CKACITRWWEDLERDFPCPVCRHT the value was 3.27; for CKACITRWWEDLERDFPCPVCRVT, 3.42.
Same read-out and setting: for CKACITRWWEDLERDFPCPVCRWT the value was 2.95; for CKACITRWWEDLERDFPCPVCRIT, 3.23.
Consider CKACITRWWEDLERDFPCPVCRFT, for which the protein stability index amounted to 2.57.
The same measure, in the same setting: then CKACITRWWEDLERDFPCPVCRCT, with 3.13; and CKACITRWWEDLERDFPCPVCRET, with 4.33.
Consider CKACITRWWEDLERDFPCPVCRYT, for which the protein stability index is 2.29.
On the same count and under the same terms, then CKACITRWWEDLERDFPCPVCRST, with 3.63; and CKACITRWWEDLERDFPCPVCRAT, with 3.9.
Still for that read-out and setting: then CKACITRWWEDLERDFPCPVCRPT, with 3.41; and CKACITRWWEDLERDFPCPVCRLT, with 2.96.

Values taken from the supplement of paper PMC10567573.
